From US20070265189A1 (published 2007) come the findings set out here.

The target of assay [1] is T1, soluble human insulin receptor-immunoglobulin heavy chain chimera (sIR-Fc; Bass et al., 1996) (human, UniProt P06213 28-956, limits assumed).
T1 construct: extracellular domain; also called soluble IR (Bass construct); not shown: immunoglobulin heavy chain constant domains
In words: phage ELISA. For orientation: An ELISA detects its analyte on a solid surface through an enzyme-linked reagent.

For assay [2], the target named is T2, Soluble IGF-1R (sIGF-1R), R&D Systems Cat. # 391-GR/CF (UniProt P08069 31-935, limits assumed).
T2 construct: extracellular domain
The experiment in a line: phage ELISA.

B1: B6Hα-1-A2-IR (peptide)
peptide: RGCNDDGGKGWSDDPFYHKLSELICGG
For B1, in assay [1], the IR/IGF-1R comparison worked out at 0.1 and the “Ratio over Background” value worked out at 1. Further, in assay [2], the IGF-1R/IR comparison turned out to be 14.6 and the “Ratio over Background” value stood at 14.6.

B2: 20E2B-1-A6-IGFR (peptide)
peptide: GVRAMSFYDALVSVLGLGPSG
Consider B2, for which, in assay [1], the IR/IGF-1R comparison came out at 0.1 and the “Ratio over Background” value stood at 1.1. Moreover, in assay [2], the IGF-1R/IR comparison came to 16.8 and the “Ratio over Background” value came out at 18.1.

B3: H2CA-3-C11-IGFR (peptide)
peptide: FRTLAAQHDSFYDWFDRQVSGAAGER
Regarding B3, in assay [1], the IR/IGF-1R comparison stood at 0.5 and the “Ratio over Background” value stood at 1.6. Further, in assay [2], the IGF-1R/IR comparison is 2.1 and the “Ratio over Background” value worked out at 3.3.

B4: 20E2A-4-F11-IGFR (peptide)
peptide: QGGSASFYDAIDRLLRMRIGG
On to B4, for which, in assay [1], the IR/IGF-1R comparison was determined as 0.1 and the “Ratio over Background” value came out at 1.3. Besides, in assay [2], the IGF-1R/IR comparison was 14.6 and the “Ratio over Background” value came to 18.8.

B5: B6Hα-1-B5-IR (peptide)
peptide: CCTTEMVVMDARDDPFYHKLSELVTGG
As for B5, in assay [1], the IR/IGF-1R comparison was 0 and the “Ratio over Background” value worked out at 1. Moreover, in assay [2], the IGF-1R/IR comparison came out at 20.5 and the “Ratio over Background” value amounted to 20.5.

B6: 20E2B-3-02-IGFR (peptide)
peptide: GNGDGMFYQLLSLLVGRDMHV
Consider B6, for which, in assay [1], the IR/IGF-1R comparison was found to be 0.1 and the “Ratio over Background” value was 0.6. In addition, in assay [2], the IGF-1R/IR comparison was found to be 13.8 and the “Ratio over Background” value worked out at 8.9.

B7: R20α-3-20E2-IR (peptide)
peptide: FYDAIDQLVRGSARAGGTRD
With B7, in assay [1], the IR/IGF-1R comparison was 0.1 and the “Ratio over Background” value was 3.1. Moreover, in assay [2], the IGF-1R/IR comparison came to 12.9 and the “Ratio over Background” value was found to be 39.9.

B8: H2CA-4-F5-IGFR (peptide)
peptide: VGYQGQGDENFYDWFIRQVSGRLGVQ
On to B8, for which, in assay [1], the IR/IGF-1R comparison was 0.1 and the “Ratio over Background” value came to 0.8. Moreover, in assay [2], the IGF-1R/IR comparison came to 12.3 and the “Ratio over Background” value came out at 9.7.

B9: A6S-2-D1-IR (peptide)
peptide: VERSASSQDGNFYDWFVVQIR
As for B9, in assay [1], the IR/IGF-1R comparison was 0.4 and the “Ratio over Background” value turned out to be 12. In addition, in assay [2], the IGF-1R/IR comparison was 2.6 and the “Ratio over Background” value came out at 30.6.

B10: 20E2B-3-E3-IGFR (peptide)
peptide: PDLHKGFYAQLAQLIRGQLLS
Turning to B10, in assay [1], the IR/IGF-1R comparison was determined as 0.1 and the “Ratio over Background” value worked out at 1.3. For the same molecule, in assay [2], the IGF-1R/IR comparison was 13.1 and the “Ratio over Background” value was determined as 16.3.

B11: A6L-0-E6-IR (peptide)
peptide: YRGMLVLGRSSDGAGKVAFERPARIGQTVFAVNFYDWFV
In the case of B11, in assay [1], the IR/IGF-1R comparison was found to be 0.1 and the “Ratio over Background” value turned out to be 1.8. In assay [2], the IGF-1R/IR comparison is 17 and the “Ratio over Background” value came to 31.

B12: 20E2Bβ-4-G6-IR (peptide)
peptide: SQAGSAFYAWFDQVLRTVHSA
B12: in assay [1], the IR/IGF-1R comparison was 0.3 and the “Ratio over Background” value is 1.9. Further, in assay [2], the IGF-1R/IR comparison was determined as 3.3 and the “Ratio over Background” value came to 6.2.

B13: H2CA-2-B11-IGFR (peptide)
peptide: AICDAGFHEHFYDWFALQVSDCGRQS
Consider B13, for which, in assay [1], the IR/IGF-1R comparison stood at 0.3 and the “Ratio over Background” value was 1.6. In assay [2], the IGF-1R/IR comparison was found to be 3 and the “Ratio over Background” value was found to be 4.6.

B14: 20C-4-C7-IGFR (peptide)
peptide: FFYDCLAALLQGVARYHDLCAVEIT
B14: in assay [1], the IR/IGF-1R comparison was less than 0.1 and the “Ratio over Background” value was 1.3. Also, in assay [2], the IGF-1R/IR comparison amounted to 21.8 and the “Ratio over Background” value came to 28.

B15: A6S-3-E2-IR (peptide)
peptide: TSEVQRRSQDNFYDWFVAQVA
As to B15, in assay [1], the IR/IGF-1R comparison worked out at 0.4 and the “Ratio over Background” value was determined as 9.8. Further, in assay [2], the IGF-1R/IR comparison is 2.5 and the “Ratio over Background” value amounted to 24.7.

B16: 20C-3-G3-IGFR (peptide)
peptide: TFYSCLASLLTGTPQPNRGPWERCR
Turning to B16, in assay [1], the IR/IGF-1R comparison is less than 0.1 and the “Ratio over Background” value is 1.2. For the same molecule, in assay [2], the IGF-1R/IR comparison turned out to be 27 and the “Ratio over Background” value was found to be 32.3.

B17: 20C-3-F6-IGFR (peptide)
peptide: DRDFCRFYERLTALVGGQVDGGWPC
Turning to B17, in assay [1], the IR/IGF-1R comparison stood at 0.1 and the “Ratio over Background” value was found to be 1.9. Besides, in assay [2], the IGF-1R/IR comparison came to 14.1 and the “Ratio over Background” value stood at 26.1.

B18: B6Hα-3-E9-IR (peptide)
peptide: RCEEKQAEVGPSSDPFYHKMSELLGCR
In the case of B18, in assay [1], the IR/IGF-1R comparison amounted to 0.1 and the “Ratio over Background” value came to 1.7. Besides, in assay [2], the IGF-1R/IR comparison is 14.2 and the “Ratio over Background” value worked out at 24.2.

B19: 20E2B-3-C6-IGFR (peptide)
peptide: VEGRGLFYDLLRQLLARRQNG
With B19, in assay [1], the IR/IGF-1R comparison is 0.1 and the “Ratio over Background” value is 1.1. For the same molecule, in assay [2], the IGF-1R/IR comparison worked out at 14.8 and the “Ratio over Background” value stood at 16.8.

B20: R20β-4-A6-IR (peptide)
peptide: RGQSDAFYSGLWALIGLSDG
Consider B20, for which, in assay [1], the IR/IGF-1R comparison was 0.1 and the “Ratio over Background” value turned out to be 1.5. In addition, in assay [2], the IGF-1R/IR comparison amounted to 17.3 and the “Ratio over Background” value was determined as 25.9.

B21: NNRPγ-4-B11-IR (peptide)
peptide: LKDGFYDYFWQRLHLGS
For B21, in assay [1], the IR/IGF-1R comparison stood at 0.1 and the “Ratio over Background” value worked out at 1.2. Moreover, in assay [2], the IGF-1R/IR comparison stood at 15.5 and the “Ratio over Background” value worked out at 18.7.

B22: R20α-4-20A12-IR (peptide)
peptide: RLFYCGIQALGANLGYSGCV
On to B22, for which, in assay [1], the IR/IGF-1R comparison came to 0.1 and the “Ratio over Background” value is 2.4. Moreover, in assay [2], the IGF-1R/IR comparison amounted to 16.6 and the “Ratio over Background” value was 39.9.

B23: H2CA-3-E8-IGFR (peptide)
peptide: LGYQEPFQQNFYDWFVRQVSGAENAG
In the case of B23, in assay [1], the IR/IGF-1R comparison came out at 0.3 and the “Ratio over Background” value was found to be 2.2. In addition, in assay [2], the IGF-1R/IR comparison is 2.9 and the “Ratio over Background” value was 6.3.

B24: 20C-3-A1-IGFR (peptide)
peptide: SSYGCDGFYLMLFSLGLVASQELEC
As to B24, in assay [1], the IR/IGF-1R comparison came to 0.1 and the “Ratio over Background” value worked out at 1.5. Moreover, in assay [2], the IGF-1R/IR comparison stood at 13.7 and the “Ratio over Background” value was 20.8.

B25: E4Dα-2-D11-IR (peptide)
peptide: GFREGSFYDWFQAQVT
With B25, in assay [1], the IR/IGF-1R comparison worked out at 0.3 and the “Ratio over Background” value was found to be 3.3. In assay [2], the IGF-1R/IR comparison came to 3.4 and the “Ratio over Background” value came out at 11.1.

B26: H2CA-3-E11-IGFR (peptide)
peptide: HLADGQFHEKFYDWFERQISSRCNDC
With B26, in assay [1], the IR/IGF-1R comparison was determined as 0.5 and the “Ratio over Background” value was determined as 1. In assay [2], the IGF-1R/IR comparison was 2.2 and the “Ratio over Background” value is 2.2.

B27: A6S-2-D11-IR (peptide)
peptide: EAASLGSQDRNFYDWFVRQVV
Turning to B27, in assay [1], the IR/IGF-1R comparison came out at 0.4 and the “Ratio over Background” value was 13.5. For the same molecule, in assay [2], the IGF-1R/IR comparison worked out at 2.8 and the “Ratio over Background” value worked out at 37.4.

B28: A6L-0-H3-IR (peptide)
peptide: YRGMLVLGRISGGAGKAASERPARIGQKVSAVNFYDWFV
As to B28, in assay [2], the IGF-1R/IR comparison stood at 13 and the “Ratio over Background” value is 26.

B29: H2CA-4-H9-IGFR (peptide)
peptide: RGAVAGFHDQFYDWFDRQVSRVHKFG
Take B29: in assay [2], the IGF-1R/IR comparison turned out to be 3 and the “Ratio over Background” value was found to be 5.6.

B30: H2CA-2-B2-IGFR (peptide)
peptide: GAPVDQLHEDFYDWFVRQVSQAATG
On to B30, for which, in assay [1], the IR/IGF-1R comparison turned out to be 0.3 and the “Ratio over Background” value turned out to be 1. In assay [2], the IGF-1R/IR comparison is 3.5 and the “Ratio over Background” value was 3.4.

B31: 20E2Bβ-4-G7-IR (peptide)
peptide: LQPCSGFYECIERLIGVKLSG
Take B31: in assay [1], the IR/IGF-1R comparison is 0.1 and the “Ratio over Background” value came out at 1.6. In assay [2], the IGF-1R/IR comparison worked out at 15.8 and the “Ratio over Background” value came out at 25.2.

B32: 20E2B-4-H3-IGFR (peptide)
peptide: KLHNLMFYYGLQRLVWGAGLG
B32: in assay [1], the IR/IGF-1R comparison came out at 0.1 and the “Ratio over Background” value is 1.1. For the same molecule, in assay [2], the IGF-1R/IR comparison came to 13.9 and the “Ratio over Background” value was determined as 14.8.

B33: H2CA-4-H6-IGFR (peptide)
peptide: VGRASGFPENFYDWFGRQLSLQSGEQ
For B33, in assay [1], the IR/IGF-1R comparison was determined as 0.1 and the “Ratio over Background” value worked out at 0.7. In addition, in assay [2], the IGF-1R/IR comparison came out at 14.6 and the “Ratio over Background” value came out at 10.5.
